Assay results from patent publication US20150139990A1 (DAINIPPON SUMITOMO PHARMA, published 2015).
Read-outs that look alike come from different tables or passages of the source.

Legend:
Assay in all cases: ELISA
[1] = target: T1, human CD81 mutant L165A (human, UniProt P60033 1-236, limits assumed)
T1 construct: as m30; not shown: C-terminal V5 and 6xHis tags
T1 sequence: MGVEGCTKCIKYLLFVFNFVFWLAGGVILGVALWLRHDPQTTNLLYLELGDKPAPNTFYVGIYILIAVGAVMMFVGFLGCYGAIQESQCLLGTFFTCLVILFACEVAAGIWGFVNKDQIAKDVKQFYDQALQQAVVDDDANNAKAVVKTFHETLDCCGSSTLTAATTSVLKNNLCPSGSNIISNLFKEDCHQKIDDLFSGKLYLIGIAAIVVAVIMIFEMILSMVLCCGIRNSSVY
Summary of the method: (§1)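 Altered forms of human CD81 carrying C-terminal V5 and 6×His tags were cloned in pcDNA-DEST40 and expressed transiently in CHO cells for 48 hours, after which membranes were solubilised in 1% n-octylglucoside and captured on Ni-NTA His Sorb plates at 5 μg/100 μL/well for 3 hours at 4° C. Antibody was bound for 1 hour at room temperature and detected with HRP anti-human IgG4 and TMB, reading absorbance at 450 nm. Relative binding affinity is expressed as a percentage of binding to unmodified CD81, adjusted for V5-tag expression.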

[2] = target: T2, human CD81 mutant G158S (human, UniProt P60033 1-236, limits assumed)
T2 construct: as m30; not shown: C-terminal V5 and 6xHis tags
T2 sequence: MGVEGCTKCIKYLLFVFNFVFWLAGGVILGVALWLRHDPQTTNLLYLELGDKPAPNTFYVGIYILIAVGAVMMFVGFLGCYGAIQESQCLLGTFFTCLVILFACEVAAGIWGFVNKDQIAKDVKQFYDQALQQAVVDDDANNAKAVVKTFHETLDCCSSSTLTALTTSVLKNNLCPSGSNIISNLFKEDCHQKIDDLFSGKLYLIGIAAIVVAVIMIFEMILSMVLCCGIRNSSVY
Summary of the method: as §1

[3] = target: T3, human CD81 mutant V169A (human, UniProt P60033 1-236, limits assumed)
T3 construct: as m30; not shown: C-terminal V5 and 6xHis tags
T3 sequence: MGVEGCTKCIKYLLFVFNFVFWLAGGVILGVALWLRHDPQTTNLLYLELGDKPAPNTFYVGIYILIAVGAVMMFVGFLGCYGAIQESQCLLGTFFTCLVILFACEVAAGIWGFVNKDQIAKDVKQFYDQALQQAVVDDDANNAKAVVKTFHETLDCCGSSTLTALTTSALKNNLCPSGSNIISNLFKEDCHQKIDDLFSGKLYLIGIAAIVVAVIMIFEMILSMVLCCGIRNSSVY
Summary of the method: as §1

[4] = target: T4, human CD81 mutant V135A (human, UniProt P60033 1-236, limits assumed)
T4 construct: as m30; not shown: C-terminal V5 and 6xHis tags
T4 sequence: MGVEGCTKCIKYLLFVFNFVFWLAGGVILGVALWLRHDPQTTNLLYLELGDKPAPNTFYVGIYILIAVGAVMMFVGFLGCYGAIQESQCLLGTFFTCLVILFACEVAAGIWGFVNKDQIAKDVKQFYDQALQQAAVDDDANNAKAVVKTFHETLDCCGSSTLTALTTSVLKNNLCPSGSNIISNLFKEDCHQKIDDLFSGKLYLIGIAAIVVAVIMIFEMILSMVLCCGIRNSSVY
Summary of the method: as §1

[5] = target: T5, human CD81 mutant D137A (human, UniProt P60033 1-236, limits assumed)
T5 construct: as m30; not shown: C-terminal V5 and 6xHis tags
T5 sequence: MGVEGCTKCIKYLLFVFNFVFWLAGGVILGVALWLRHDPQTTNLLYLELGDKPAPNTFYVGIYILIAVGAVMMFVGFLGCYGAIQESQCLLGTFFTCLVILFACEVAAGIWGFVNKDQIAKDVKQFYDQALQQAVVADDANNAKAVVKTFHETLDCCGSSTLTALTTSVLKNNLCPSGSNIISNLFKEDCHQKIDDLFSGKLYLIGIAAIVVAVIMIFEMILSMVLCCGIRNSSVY
Summary of the method: as §1

[6] = target: T6, human CD81 mutant A164T (human, UniProt P60033 1-236, limits assumed)
T6 construct: as m30; not shown: C-terminal V5 and 6xHis tags
T6 sequence: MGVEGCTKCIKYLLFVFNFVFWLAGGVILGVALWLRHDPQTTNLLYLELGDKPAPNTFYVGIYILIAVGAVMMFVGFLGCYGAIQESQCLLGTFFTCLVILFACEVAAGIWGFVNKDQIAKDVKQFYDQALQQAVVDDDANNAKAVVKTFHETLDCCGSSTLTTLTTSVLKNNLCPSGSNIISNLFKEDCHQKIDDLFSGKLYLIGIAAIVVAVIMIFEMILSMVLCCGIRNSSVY
Summary of the method: as §1

[7] = target: T7, human CD81 mutant G158A (human, UniProt P60033 1-236, limits assumed)
T7 construct: as m30; not shown: C-terminal V5 and 6xHis tags
T7 sequence: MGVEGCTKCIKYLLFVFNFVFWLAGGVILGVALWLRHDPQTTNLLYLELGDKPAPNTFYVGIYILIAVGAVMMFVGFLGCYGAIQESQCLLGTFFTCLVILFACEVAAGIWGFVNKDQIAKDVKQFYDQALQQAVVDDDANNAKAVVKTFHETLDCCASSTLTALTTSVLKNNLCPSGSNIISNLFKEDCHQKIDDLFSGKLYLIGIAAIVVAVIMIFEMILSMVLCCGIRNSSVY
Summary of the method: as §1

[8] = target: T1, human CD81 mutant L165A; remark: listed apart in the source
Summary of the method: as §1

[9] = target: T8, human CD81 mutant V169L (human, UniProt P60033 1-236, limits assumed)
T8 construct: as m30; not shown: C-terminal V5 and 6xHis tags
T8 sequence: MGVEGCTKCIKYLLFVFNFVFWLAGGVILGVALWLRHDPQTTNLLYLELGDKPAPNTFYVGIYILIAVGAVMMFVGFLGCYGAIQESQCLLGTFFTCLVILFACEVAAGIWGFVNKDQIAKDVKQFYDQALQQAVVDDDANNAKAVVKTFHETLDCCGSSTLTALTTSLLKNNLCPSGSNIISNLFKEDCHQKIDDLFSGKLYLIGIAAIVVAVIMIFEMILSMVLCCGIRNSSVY
Summary of the method: as §1

[10] = target: T4, human CD81 mutant V135A; remark: listed apart in the source
Summary of the method: as §1

Measured: relative binding affinity

B1: 002-A07 IgG4 antibody (antibody)
heavy: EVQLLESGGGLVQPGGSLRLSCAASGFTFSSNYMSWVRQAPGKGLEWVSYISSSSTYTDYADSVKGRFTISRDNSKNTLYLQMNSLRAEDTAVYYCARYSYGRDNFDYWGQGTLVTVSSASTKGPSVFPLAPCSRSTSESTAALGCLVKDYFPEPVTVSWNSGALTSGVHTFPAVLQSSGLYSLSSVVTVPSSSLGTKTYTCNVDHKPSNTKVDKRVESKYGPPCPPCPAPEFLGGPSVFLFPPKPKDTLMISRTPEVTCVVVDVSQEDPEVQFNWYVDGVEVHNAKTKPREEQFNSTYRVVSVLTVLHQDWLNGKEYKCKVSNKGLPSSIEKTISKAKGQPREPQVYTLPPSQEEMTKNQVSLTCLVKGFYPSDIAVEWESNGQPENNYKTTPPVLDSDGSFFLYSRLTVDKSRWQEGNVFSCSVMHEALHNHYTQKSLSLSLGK
light: QSVLTQPPSASGTPGQRVTISCTGSTSNIGAGYDTHWYQQLPGTAPKLLIYGNSNRPSGVPDRFSGSKSGTSASLAISGLRSEDEADYYCQSYDTNLSVWVFGGGTKLTVLGQPKAAPSVTLFPPSSEELQANKATLVCLISDFYPGAVTVAWKADSSPVKAGVETTTPSKQSNNKYAASSYLSLTPEQWKSHRSYSCQVTHEGSTVEKTVAPTECS
notes: human IgG4 S228P, lambda light chain
< 20%: all assays above
